Laboratory results taken from publication PMC5986005, “Catalysis of transthiolacylation in the active centers of dihydrolipoamide acyltransacetylase components of 2‐oxo acid dehydrogenase complexes” (FEBS Open Bio, 2018).
Where a chain is given by its changes, count along the chain named. In names and notes the source's numbering stands.

B1: OGDHc assembled from E1o, E2o and E3 (2-oxoglutarate site on E1o) (Escherichia coli K-12) (protein)
chain: MQNSALKAWLDSSYLSGANQSWIEQLYEDFLTDPDSVDANWRSTFQQLPGTGVKPDQFHSQTREYFRRLAKDASRYSSTISDPDTNVKQVKVLQLINAYRFRGHQHANLDPLGLWQQDKVADLDPSFHDLTEADFQETFNVGSFASGKETMKLGELLEALKQTYCGPIGAEYMHITSTEEKRWIQQRIESGRATFNSEEKKRFLSELTAAEGLERYLGAKFPGAKRFSLEGGDALIPMLKEMIRHAGNSGTREVVLGMAHRGRLNVLVNVLGKKPQDLFDEFAGKHKEHLGTGDVKYHMGFSSDFQTDGGLVHLALAFNPSHLEIVSPVVIGSVRARLDRLDEPSSNKVLPITIHGDAAVTGQGVVQETLNMSKARGYEVGGTVRIVINNQVGFTTSNPLDARSTPYCTDIGKMVQAPIFHVNADDPEAVAFVTRLALDFRNTFKRDVFIDLVCYRRHGHNEADEPSATQPLMYQKIKKHPTPRKIYADKLEQEKVATLEDATEMVNLYRDALDAGDCVVAEWRPMNMHSFTWSPYLNHEWDEEYPNKVEMKRLQELAKRISTVPEAVEMQSRVAKIYGDRQAMAAGEKLFDWGGAENLAYATLVDEGIPVRLSGEDSGRGTFFHRHAVIHNQSNGSTYTPLQHIHNGQGAFRVWDSVLSEEAVLAFEYGYATAEPRTLTIWEAQFGDFANGAQVVIDQFISSGEQKWGRMCGLVMLLPHGYEGQGPEHSSARLERYLQLCAEQNMQVCVPSTPAQVYHMLRRQALRGMRRPLVVMSPKSLLRHPLAVSSLEELANGTFLPAIGEIDELDPKGVKRVVMCSGKVYYDLLEQRRKNNQHDVAIVRIEQLYPFPHKAMQEVLQQFAHVKDFVWCQEEPLNQGAWYCSQHHFREVIPFGASLRYAGRPASASPAVGYMSVHQKQQQDLVNDALNVE
notes: components expressed separately in E. coli (pCA24N in AG1 for E1o and E2o; E1o purified on Ni-Sepharose) and reassembled at E1o:E2o:E3 mass ratio 1:1:1; with Dihydrolipoyllysine-residue succinyltransferase component of 2-oxoglutarate dehydrogenase complex; Dihydrolipoyl dehydrogenase
B2: OGDHc assembled from E1o, E2o and E3 (CoA site on E2o) (Escherichia coli K-12; H376W) (protein)
chain: SSVDILVPDLPESVADATVATWHKKPGDAVVRDEVLVEIETDKVVLEVPASADGILDAVLEDEGTTVTSRQILGRLREGNSAGKETSAKSEEKASTPAQRQQASLEEQNNDALSPAIRRLLAEHNLDASAIKGTGVGGRLTREDVEKHLAKAPAKESAPAAAAPAAQPALAARSEKRVPMTRLRKRVAERLLEAKNSTAMLTTFNEVNMKPIMDLRKQYGEAFEKRHGIRLGFMSFYVKAVVEALKRYPEVNASIDGDDVVYHNYFDVSMAVSTPRGLVTPVLRDVDTLGMADIEKKIKELAVKGRDGKLTVEDLTGGNFTITNGGVFGSLMSTPIINPPQSAILGMHAIKDRPMAVNGQVEILPMMYLALSYDWRLIDGRESVGFLVTIKELLEDPTRLLLDV
notes: components expressed separately in E. coli (pCA24N in AG1 for E1o and E2o) and reassembled at E1o:E2o:E3 mass ratio 1:1:1; with 2-oxoglutarate dehydrogenase E1 component; Dihydrolipoyl dehydrogenase
B3: OGDHc assembled from E1o, E2o and E3 (CoA site on E2o) (Escherichia coli K-12) (protein)
chain: B2 chain with W375H
notes: as for B2
B4: OGDHc assembled from E1o, E2o and E3 (CoA site on E2o) (Escherichia coli K-12; T324A) (protein)
chain: B2 chain with T323A, W375H
notes: as for B2
B5: OGDHc assembled from E1o, E2o and E3 (CoA site on E2o) (Escherichia coli K-12; D380A) (protein)
chain: B2 chain with W375H, D379A
notes: as for B2
B6: OGDHc assembled from E1o, E2o and E3 (CoA site on E2o) (Escherichia coli K-12; H376G) (protein)
chain: B2 chain with W375G
notes: as for B2
B7: OGDHc assembled from E1o, E2o and E3 (CoA site on E2o) (Escherichia coli K-12; R377A) (protein)
chain: B2 chain with W375H, R376A
notes: as for B2

What was measured:
[1] = biological target: T1, E1o (with LDo as acyl acceptor) (Escherichia coli, UniProt P0AFG3); assay: reductive acylation of LDo, ESI FT-MS; assay type: biochemical
T1 construct: gene sucA; E1o purified on Ni-Sepharose; acceptor is the separate E2o lipoyl domain (residues 1-105, His6-tagged, lipoylated in vitro); with Dihydrolipoyllysine-residue succinyltransferase component of 2-oxoglutarate dehydrogenase complex

E2o = biological target: T2, E2o (Escherichia coli, UniProt P0AFG6, H376W); assay: intrinsic Trp fluorescence quenching (ex […] nm); assay type: binding
T2 construct: gene sucB; full-length E2o alone, pCA24N plasmid, expressed in E. coli, PEG precipitation and size exclusion

[2] = biological target: T3, CDo (E2o catalytic domain) (Escherichia coli, UniProt P0AFG6); assay: reverse succinyl transfer to dihydro-LDo, ESI FT-MS; assay type: biochemical; details: 40 μM dihydro-LDo, 0.10 mM TCEP, 0.15 mM succinyl-CoA, 35 mM NH4HCO3 pH 7.5, 30 °C
T3 construct: gene sucB; separate dihydro-LDo (residues 1-105) as acyl acceptor
T3 sequence (P0AFG6 94-405): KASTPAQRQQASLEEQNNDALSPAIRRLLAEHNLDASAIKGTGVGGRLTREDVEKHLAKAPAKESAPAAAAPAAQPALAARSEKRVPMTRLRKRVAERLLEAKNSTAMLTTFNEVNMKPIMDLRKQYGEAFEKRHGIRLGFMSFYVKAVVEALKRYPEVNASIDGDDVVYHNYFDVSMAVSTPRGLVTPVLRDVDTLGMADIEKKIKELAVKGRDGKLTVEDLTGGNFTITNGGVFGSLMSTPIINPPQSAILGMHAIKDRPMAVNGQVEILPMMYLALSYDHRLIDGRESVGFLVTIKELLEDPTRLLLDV

purified protein [3] = substrate: O=C(O)CCC(=O)C(=O)O; assay: purified protein; assay type: biochemical, Escherichia coli; details: reassembled complex with wild-type E2o; CoA, NAD+, ThDP, Mg2+; kcat of overall reaction
purified protein [4] = substrate: CC(C)(COP(=O)(O)OP(=O)(O)OC[C@H]1O[C@@H](n2cnc3c(N)ncnc32)[C@H](O)[C@@H]1OP(=O)(O)O)[C@@H](O)C(=O)NCCC(=O)NCCS; assay: purified protein; assay type: biochemical, Escherichia coli; details: 2-oxoglutarate, NAD+, ThDP, Mg2+, kcat of overall reaction
[5] = reassembled complex with wild-type E2o

Molecule | Km (purified protein [4]; reassembled complex) [µM] | kcat (purified protein [4]; reassembled complex) [s⁻¹] | other results
CC(=O)C(=O)O [pyruvate] | – | – | reductive acylation of LDo, ESI FT-MS ([1]; LDo as acyl acceptor, ThDP, Mg2+): could also be used by E1o as substrates for reductive acylation of LDo
CC(C)(COP(=O)(O)OP(=O)(O)OC[C@H]1O[C@@H](n2cnc3c(N)ncnc32)[C@H](O)[C@@H]1OP(=O)(O)O)[C@@H](O)C(=O)NCCC(=O)NCCS [CoA, coenzyme A] | – | – | Kd (E2o): 61.2 µM
O=C(O)CCCC(=O)C(=O)O [OA, 2-oxoadipate] | – | – | reductive acylation of LDo, ESI FT-MS ([1]; 100 μM LDo, 0.1 mM ThDP, 0.5 mM MgCl2, 35 mM NH4HCO3 pH 7.5, 2.5 mM OA): could also be used by E1o as substrates for reductive acylation of LDo
CC(C)(COP(=O)(O)OP(=O)(O)OC[C@H]1O[C@@H](n2cnc3c(N)ncnc32)[C@H](O)[C@@H]1OP(=O)(O)O)[C@@H](O)C(=O)NCCC(=O)NCCSC(=O)CCC(=O)O [succinyl-CoA, succinyl-coenzyme A] | – | – | reverse succinyl transfer to dihydro-LDo, ESI FT-MS [2]: rate of succinyl transfer from succinyl‐CoA to the dihydro‐LDo; Kd (E2o): 47 µM
B1 | – | – | Km (purified protein [3]): 50 ± 11 µM; kcat (purified protein [3]): 48.0 s⁻¹; kcat/Km (purified protein [3]): 1.07e+06 M⁻¹ s⁻¹
B2 | 13.3 | 28.8 | –
B3 | – | – | Km (purified protein [4]; [5]): 20.4 µM; kcat (purified protein [4]; [5]): 48.0 s⁻¹
B4 | 23.3 | 21.7 | –
B5 | 21.1 | 4.6 | –
B6 | 20.6 | 5.76 | –
B7 | 19.8 | 27.0 | –
